± gives the standard error. This sample holds only a part of the variants without activity.
B1: glmS ribozyme (parent)
chain: AUAAAAGCGCCAGAACUACAGAAAUGUAGUUGACGAGGAGGAGGUUUAUCGAAUUUUCGGCGGAUGCCUCCAAA

Columns and labels:
Conditions in all cases: with glucosamine-6-phosphate
[1] = variants of: B1; assay: self-cleavage kobs at 40 uM GlcN6P; higher = faster cleavage; RNA array
Summary of the method: (§1)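 Glucosamine-6-phosphate, from 40 μM to 10 mM in HEPES/KCl/Mg(OAc)2 buffer, was flowed over sequenced MiSeq chips carrying barcoded ribozyme variants transcribed in situ by E. coli RNA polymerase. A hybridised Cy3 probe tracked the variants at 37 °C as tiles were imaged over ~14 h. kobs, kcat and KM were obtained by fitting normalised per-tile medians to exponential decays and then applying weighted Michaelis–Menten fits across concentrations.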

[2] = variants of: B1; assay: self-cleavage kobs at 640 uM GlcN6P; higher = faster cleavage; RNA array
Summary of the method: as §1

[3] = variants of: B1; assay: self-cleavage kobs at 10000 uM GlcN6P; higher = faster cleavage; RNA array
Summary of the method: as §1

[4] = variants of: B1; assay: self-cleavage kobs at 160 uM GlcN6P; higher = faster cleavage; RNA array
Summary of the method: as §1

[5] = variants of: B1; assay: self-cleavage kobs at 2500 uM GlcN6P; higher = faster cleavage; RNA array
Summary of the method: as §1

| Variant | self-cleavage kobs at 40 uM GlcN6P [1] [s⁻¹] | self-cleavage kobs at 640 uM GlcN6P [2] [s⁻¹] | self-cleavage kobs at 10000 uM GlcN6P [3] [s⁻¹] | self-cleavage kobs at 160 uM GlcN6P [4] [s⁻¹] | self-cleavage kobs at 2500 uM GlcN6P [5] [s⁻¹] |
| --- | --- | --- | --- | --- | --- |
| G38U U55C C67G | < 1e-05 | < 1e-05 |  |  |  |
| A6G A36C G63A | < 1e-05 |  | < 1e-05 |  |  |
| G9C C11U | < 1e-05 | < 1e-05 | < 1e-05 | < 1e-05 | < 1e-05 |
| C34G G59A G60U | < 1e-05 | < 1e-05 | < 1e-05 | < 1e-05 |  |
| U30A G63C | < 1e-05 |  | < 1e-05 | < 1e-05 | < 1e-05 |
| C34A U45G C68U C71A | < 1e-05 |  | < 1e-05 | < 1e-05 | < 1e-05 |
| A12C A53U G62U | < 1e-05 |  | < 1e-05 |  |  |
| G38U A39U G60C C68A | < 1e-05 |  |  |  | < 1e-05 |
| A12G G13U U31C U49G | < 1e-05 |  |  |  |  |
| A14G A15U | 0.00111 ± 0.00019 | 0.00751 ± 0.0013 | 0.0592 ± 0.021 | 0.000722 ± 0.00014 | 0.00555 ± 0.0014 |
| C16U G51A | < 1e-05 |  |  | < 1e-05 |  |
| A36U G37U G40A A52C C58U | < 1e-05 |  |  |  |  |
| C34G U55C | < 1e-05 | < 1e-05 | < 1e-05 | < 1e-05 | < 1e-05 |
| A6U G35A | < 1e-05 | < 1e-05 |  | < 1e-05 |  |
| C8A C34G A52U C67U | < 1e-05 |  | < 1e-05 |  |  |
| A36U U55G | < 1e-05 |  |  |  |  |
| G7A C58G | < 1e-05 | < 1e-05 |  | < 1e-05 |  |
| A14C U49A | < 1e-05 | < 1e-05 | < 1e-05 |  |  |
| A36C U45G | < 1e-05 | < 1e-05 | < 1e-05 | < 1e-05 | < 1e-05 |
| A12G A52C C67G C71U | < 1e-05 |  |  |  | < 1e-05 |
| A12C U30G U54G | 3.64e-05 ± 1.3e-05 |  | 0.00183 ± 0.00039 |  | 0.000897 ± 0.00025 |
| U46G G60A | < 1e-05 | < 1e-05 |  | < 1e-05 |  |

| Variant | self-cleavage kobs at 40 uM GlcN6P [1] [s⁻¹] | self-cleavage kobs at 640 uM GlcN6P [2] [s⁻¹] | self-cleavage kobs at 10000 uM GlcN6P [3] [s⁻¹] | self-cleavage kobs at 160 uM GlcN6P [4] [s⁻¹] | self-cleavage kobs at 2500 uM GlcN6P [5] [s⁻¹] |
| --- | --- | --- | --- | --- | --- |
| G13C G35A A39G A53C U56C G63C | < 1e-05 | < 1e-05 | < 1e-05 |  | < 1e-05 |
| A12U G59C | < 1e-05 | < 1e-05 | < 1e-05 | < 1e-05 | < 1e-05 |
| C50A G63U | < 1e-05 | < 1e-05 | < 1e-05 | < 1e-05 |  |
| G9A A53U | < 1e-05 | < 1e-05 |  | < 1e-05 |  |
| A12C G38C U45A | < 1e-05 |  | < 1e-05 |  |  |
| G21U G32A C50G U57G C70G | 0.000174 ± 3.9e-05 |  | 0.000301 ± 6.1e-05 |  |  |
| U31C G41U C70G | 0.000329 ± 7e-05 |  | 0.00237 ± 0.00061 |  |  |
| G9A G32A | < 1e-05 | < 1e-05 | < 1e-05 |  | < 1e-05 |
| A12C A39C C67G | < 1e-05 |  |  |  |  |
| A33G U46G G62C | < 1e-05 | < 1e-05 |  |  | < 1e-05 |
| A6U G9U A15C U30A U49C | < 1e-05 |  |  |  |  |
| A6C G7C A42C C71U | < 1e-05 |  | < 1e-05 |  |  |
| A42U U69G | 0.000489 ± 5.4e-05 | 0.00192 ± 0.00026 | 0.00738 ± 0.0015 | 0.000822 ± 0.00011 | 0.00369 ± 0.00061 |
| G59U G63U | < 1e-05 | < 1e-05 |  | < 1e-05 | < 1e-05 |
| A39C C50A G60A C61U U65A | < 1e-05 |  | < 1e-05 |  |  |
| G59A A64C | < 1e-05 | < 1e-05 |  | < 1e-05 | < 1e-05 |
| A6U C8G A48U G62C | < 1e-05 |  |  |  |  |
| A42C U65G | < 1e-05 | < 1e-05 |  | < 1e-05 |  |
| U45A G66A | 0.000969 ± 0.00013 | 0.00848 ± 0.0021 | 0.0359 ± 0.011 | 0.00224 ± 0.00044 | 0.00884 ± 0.002 |
| A39U C61A | < 1e-05 | < 1e-05 | < 1e-05 | < 1e-05 | < 1e-05 |
| C50G C68U | 0.000168 ± 2.2e-05 | 0.00021 ± 2.4e-05 | 0.000128 ± 1.3e-05 | 0.000233 ± 4.2e-05 | 0.000189 ± 2e-05 |

Source: the supplement of paper PMC7125110
